Experimental findings from US20260092121A1 (TALEM THERAPEUTICS, published 2026) are described below.

The target in test [1] is TrkB in PathHunter eXpress TrkB Functional Assay cells (modified U2OS). Briefly: cell-based or functional assay.
In test [2] the target is T1, human TrkB-His (human, UniProt Q16620 32-430).
T1 construct: in-house fusion of the TrkB ECD with poly-His, HEK293; also called huTrkB-His; hTrkB-His; not shown: poly-His tag
Briefly: BLI off-rate, mAb captured.

The target of test [3] is T2, mouse TrkB-ECD-GST (mouse, UniProt P15209 32-429).
T2 construct: extracellular domain; in-house fusion, HEK293; also called mTrkB-ECD-GST; mTrkB (ELISA); not shown: glutathione S-transferase (GST) fusion part
Briefly: ELISA. In general terms: In an ELISA, binding on a coated surface is turned into a signal by an enzyme label.

Test [4] deals with human TrkC-His (human, UniProt Q16288 32-429). Briefly: ELISA.
Test [5] concerns the target human TrkA-His (human, UniProt P04629 33-417, limits assumed). Briefly: ELISA.

Sequence of human TrkA-His (P04629 33-417 limits assumed): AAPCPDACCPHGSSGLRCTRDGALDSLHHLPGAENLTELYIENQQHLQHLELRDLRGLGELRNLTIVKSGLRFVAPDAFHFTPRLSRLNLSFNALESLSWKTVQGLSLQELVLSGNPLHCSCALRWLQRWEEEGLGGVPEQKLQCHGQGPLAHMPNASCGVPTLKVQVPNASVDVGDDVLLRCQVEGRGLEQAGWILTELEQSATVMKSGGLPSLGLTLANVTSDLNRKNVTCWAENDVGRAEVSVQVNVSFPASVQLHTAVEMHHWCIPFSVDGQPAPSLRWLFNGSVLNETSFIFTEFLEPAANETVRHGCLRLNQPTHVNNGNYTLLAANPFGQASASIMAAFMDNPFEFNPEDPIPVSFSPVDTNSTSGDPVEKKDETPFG

B1: anti-TrkB clone 3A05 (antibody, V domains shown)
VH: QVQLVESGAEVKKPGESLKISCKGSGYSFTTYWIAWVRQMPGKGLEWMGIIYPGDSDTRYSPSFQGQVTISADKSISTAYLQWSSLKASDTAMYYCARLGGGMDVWGQGTMVTVSS
VL: QAGLTQPPSASGTPGQRVTISCSGSSSNIGSNTVSWYRQIPGTAPKFLLYGNNQRPSGVPARFSGSKSGTSASLAVDGLQSDDEADYYCAAWDDSLSGYVFGTGTKLTVL
notes: full-length IgG
With B1, the “TrkB activation (EC50)” value in test [1] was found to be 0.006 mg/L. In test [2], the koff (as a rule, the first-order rate constant of dissociation) was 0.00435 s⁻¹. The binding result in test [3] is recorded as “binds”; in test [4], “no binding (tested: up to 10 µg/mL)”; in test [5], “no binding (tested: up to 10 µg/mL)”.

B2: anti-TrkB clone 3B04 (antibody, V domains shown)
VH: QVQLVQSGAEVKKPGEPLKISCKGSGYSFPTYWIAWVRQMPGKGLEWMGIIYPGDSDTRYSPSFQGQVTISADKSISTAYLQWGSLRASDTAMYYCARGGSGLDYWGQGTLVTVSS
VL: SYELMQPPSVSVSPGQTASITCSGDKLGTKYVSWYQQKPGQSPVLVIYQDSKRPSGIPERFSGSNSGNTATLTISGTQAMDEADYYCQAWDSSTVVFGGGTKLTVL
notes: full-length IgG
Turning to B2, in test [1], the “TrkB activation (EC50)” value came out at 0.1 mg/L. Besides, the koff in test [2] was found to be 0.00802 s⁻¹. The results for the binding result in test [3], in test [4] and in test [5] were “binds”, “no binding (tested: up to 10 µg/mL)” and “no binding (tested: up to 10 µg/mL)”, respectively.

B3: anti-TrkB clone 6B04 (antibody, V domains shown)
VH: QVQLVQSGAEVKKPGESLKISCKGSGYSFTSYWIGWVRQMPGKGLEWMGIIYPGDSDTRYSPSFQGQVTISADKSISTAYLQWSSLKASDTAIYYCARLGGAMDVWGQGTLVTVSS
VL: SYELMQPPSLSVSPGQTASITCSGDKLGDKYVSWYQQRPGQSPVLVMYQDKKRPSGIPKRFSGSNSGNTATLTISGTQAMDEADYYCAAWDDSLNGYYVFGTGTQLTVL
notes: full-length IgG
Regarding B3, in test [1], the “TrkB activation (EC50)” value was 0.039 mg/L. Besides, in test [2], the koff was 0.00678 s⁻¹. Besides, the binding result in test [3] is listed as “binds”; in test [4], “no binding (tested: up to 10 µg/mL)”; in test [5] it was “no binding (tested: up to 10 µg/mL)”.

B4: anti-TrkB clone 6F04 (antibody, V domains shown)
VH: EVQLVQSGAEVKKPGESLKISCKGSGYSFTSYWIGWVRQMPGKGLEWMGIIYPGDSDTRYSPSFQGQVTISADKSISTAYLQWSSLKASDTAMYYCARGSGGYDYWGQGTLVTVSS
VL: QSVLTQPPSVSVSPGQTASITCSGNKLGDKFVSWYHQRPGQSPVLVIYEDNKRPSGIPERFSGSNSGNTATLTISGTQAMDEGDYYCQTWDVSSYVFGTGTKVTVL
notes: full-length IgG
B4: in test [1], the “TrkB activation (EC50)” value is 0.035 mg/L. In test [2], this molecule yielded a dissociation rate constant (koff) of 0.00473 s⁻¹. The figures for the binding result in test [3], in test [4] and in test [5] were “binds”, “no binding (tested: up to 10 µg/mL)” and “no binding (tested: up to 10 µg/mL)”, respectively.

B5: anti-TrkB clone 3F06 (antibody, V domains shown)
VH: QMQLVQSGAEVKKPGESLKISCKGSGYSFSTNWIGWVRQMPGKGLEWMGIIYPGDSDTRYSPSFQGQVTISADKSISTAYLQWSSLKASDTAMYYCARFYDSSGNDYWGQGTLVTVSS
VL: QSVLTQPPSVSVSPGQTASITCSGDKLGDKYASWYQQKPGQSPVLVIFQDNKRPSGIPERFSGSNSGNTATLTISGTQAMDEADYYCQTWDSSTAIFGGGTKLTVL
notes: full-length IgG
Turning to B5, the “TrkB activation (EC50)” value in test [1] amounted to 0.14 mg/L. Moreover, in test [2], the koff stood at 0.00479 s⁻¹. Moreover, the binding result is listed as “binds” in test [3], “no binding (tested: up to 10 µg/mL)” in test [4] and “no binding (tested: up to 10 µg/mL)” in test [5].

B6: anti-TrkB clone 3F09 (antibody, V domains shown)
VH: EVQLVQSGAEVKKPGESLKISCKGSGYSFTSYWIGWVRQMPGKGLEWMGIIYPGDSDTRYSPSFQGQVTISADKSISTAYLQWSSLKASDTAMYYCVVRPAAAGTRIDYWGQGTLVTVSS
VL: QSVLTQPPSVSVSPGQTASITCSGDKLGDKYASWYQQKPGQSPVLIIYQDNKRPSGIPERFSGSNSGNTATLTISGTQAMDEADYYCQAWDSSTYVFGTGTKLTVL
notes: full-length IgG
Consider B6, for which, in test [1], the “TrkB activation (EC50)” value worked out at 0.053 mg/L. In test [2], this molecule came in with a koff of 0.00631 s⁻¹. Also, the binding result in test [4] and in test [5] was “no binding (tested: up to 10 µg/mL)” throughout.

B7: anti-TrkB clone 5C07 (antibody, V domains shown)
VH: QVQLVQSGAEVKKPGESLKISCKGFGYSFTNYWIGWVRQMPGKGLEWMGIIYPGDSDTRYSPSFQGQVTISADKSITTAYLQWSSLKASDTAMYYCASHTKDGTWDIWGQGTMVTVSS
VL: QAGLTQPPSVSVSPGQTASITCSGERLGDKYVSWYQQKPGQSPVLVIYQDDKRPSGVPERFSGSNSGNTATLNISGTQPMDEADYYCQAWDSSTSLYVFGTGTKLTVL
notes: full-length IgG
As for B7, the “TrkB activation (EC50)” value in test [1] came out at 0.47 mg/L. The molecule further gave a koff in test [2] of 0.00457 s⁻¹. The binding result in test [3] is given as “binds”; in test [4], “no binding (tested: up to 10 µg/mL)”; in test [5] it was “no binding (tested: up to 10 µg/mL)”.

B8: anti-TrkB clone 3H11 (antibody, V domains shown)
VH: QVQLQQSGPGLVKPSQTLSLTCAISGDSVSSNSAVWNWIRQSPSRGLEWLGRTYYRSKWYTDFAVSVKSRITINPDTSKNQFSLQLNSVTPEDTAVYYCARGRNGMDVWGQGTMVTVST
VL: LPVLTQPPSASGTPGQRVTISCSGSSSNIGHKYVYWYQQLPGAAPKLLIYRNNQRPSGVPDRFSASKSGTSASLAISGLRSEDEADYYCATWDDSLNGVVFGGGTKVTVL
notes: full-length IgG
Consider B8, for which the “TrkB activation (EC50)” value in test [1] was 0.02 mg/L. The koff in test [2] is 0.0057 s⁻¹. For the same molecule, the binding result in test [3] was “binds”; in test [4] it was “no binding (tested: up to 10 µg/mL)”; in test [5], “no binding (tested: up to 10 µg/mL)”.

B9: anti-TrkB clone 3A06 (antibody, V domains shown)
VH: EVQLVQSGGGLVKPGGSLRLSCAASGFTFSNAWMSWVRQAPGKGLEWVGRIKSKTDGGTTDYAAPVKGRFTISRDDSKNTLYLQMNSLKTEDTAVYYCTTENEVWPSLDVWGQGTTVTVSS
VL: QSVLTQPPSVSVSPGQTASITCSGDKLGNKYASWYRQKPGQSPVLVIYQDTKRPSGIPERFSGSNSGNTATLTISGTQAMDEGDYYCQAWDSSTAVVFGGGTKLTVL
notes: full-length IgG
Regarding B9, the “TrkB activation (EC50)” value in test [1] worked out at 0.15 mg/L. This molecule also had a koff in test [2] of 0.00453 s⁻¹. For the same molecule, the results for the binding result in test [3], in test [4] and in test [5] were “binds”, “no binding (tested: up to 10 µg/mL)” and “no binding (tested: up to 10 µg/mL)”, respectively.

B10: anti-TrkB clone 3E04 (antibody, V domains shown)
VH: EVQLVQSGAEVKKPGESLKISCKGSGYSFTSYWIGWVRQMPGKGLEWMGIIYPGDSDTRYSPSFQGQVTISADKSISTAYLQWSSLKASDTAMYYCASRLLFGDDAFDIWGQGTMVTVSS
VL: SYVLTQPPSVSVSPGQTATITCSGDKLGDEYVSWYQQKPGQSPVLVIYQDSKRPSGIPERFSGSNSGNTATLTISGAQAVDEADYYCQAWDSNAGAFGTGTKLTVL
notes: full-length IgG
Regarding B10, the “TrkB activation (EC50)” value in test [1] was 0.11 mg/L. Moreover, the koff in test [2] stood at 0.00534 s⁻¹. The binding result in test [3] was “binds”; in test [4], “no binding (tested: up to 10 µg/mL)”; in test [5], “no binding (tested: up to 10 µg/mL)”.

B11: anti-TrkB clone 4F03 (antibody, V domains shown)
VH: EVQLVQSGAEVKKPGESLKISCKGSGYSFTSYWIGWVRQMPGKGLEWMGIIYPGDSDTRYSPSFQGQVTISADKSISTAYLQWSSLKASDTAMYYCASWGMDVWGQGTLVTVSS
VL: QPVLTQPPSASGTPGQRVTISCSGSSSNIGTHTVNWYQQFPGTAPKLLMYSTFQRPSGVPDRFSGSKSGTSASLAISGLQSEDEADYYCAAWDDSLNGPVFGGGTQLTVL
notes: full-length IgG
With B11, in test [1], the “TrkB activation (EC50)” value turned out to be 0.041 mg/L. This molecule returned a koff in test [2] of 0.00639 s⁻¹. In addition, the binding result in test [4] and in test [5] was “no binding (tested: up to 10 µg/mL)” each time.

B12: anti-TrkB clone 1E07 (antibody, V domains shown)
VH: QVQLVQSGAEVKKPGESLRISCKGSGYSFTNNWINWVRQMPGKGLEWMGRIDPDDSYTNYSPSFQGHVIFSADKSSNTVYLQWSSLEASDTAMYYCARRAQGGGGYDYWGQGTLVTVSS
VL: QSVLTQPPSVSGAPGQRVTISCTGSSSNIGAGFNVHWYQQVAGLAPKLLIHDNINRPSGVPDRFSGSKSGASASLTITGLQAEDEADYYCQSYDSSLSGWFAFGTGTKVTVL
notes: full-length IgG
In the case of B12, in test [1], the “TrkB activation (EC50)” value is 0.13 mg/L. Moreover, the off-rate constant (koff) in test [2] worked out at 0.00613 s⁻¹. Also, the binding result in test [3] is listed as “binds”; in test [4], “no binding (tested: up to 10 µg/mL)”; in test [5], “no binding (tested: up to 10 µg/mL)”.

B13: anti-TrkB clone 3C02 (antibody, V domains shown)
VH: QVQLVQSGAEVKKPGESLKISCKGSGYSFTSYWIGWVRQMPGKGLEWMGIIYPGDSDTRYSPSFQGQVTISADKSISTAYLQWSSLKASDTAMYYCARGGPPDYWGQGTLVTVSS
VL: not shown
notes: full-length IgG
Turning to B13, the “TrkB activation (EC50)” value in test [1] is 0.15 mg/L. In addition, the koff in test [2] stood at 0.00494 s⁻¹. Besides, the binding result in test [3] is reported as “binds”; in test [4], “no binding (tested: up to 10 µg/mL)”; in test [5] it was “no binding (tested: up to 10 µg/mL)”.

B14: anti-TrkB clone 3B09 (antibody, V domains shown)
VH: EVQLVQSGAEVKKPGESLKISCKGSGYSFTSYWIGWVRQMPGKGLEWMGIIYPGDSDTRYSPSFQGQVTISADKSISTAYLQWSSLKASDTAMYYCATPMEDGMDVWGQGTTVTVSS
VL: QAGLTQPPSVSVSPGQTVTITCSADNLGDKYTSWYQQRPGQSPVLVIYQDTKRPSGIPARFSGSNSGNTATLTISGTQAMDEADYYCQAWDSSTGVFGTGTKVTVL
notes: full-length IgG
For the molecule B14, the “TrkB activation (EC50)” value in test [1] was 0.094 mg/L. In test [2], the koff came out at 0.00472 s⁻¹. The binding result is “binds” in test [3], “no binding (tested: up to 10 µg/mL)” in test [4] and “no binding (tested: up to 10 µg/mL)” in test [5].
